T1: Human Scribble (SCRIB) PDZ3 domain (1002-1094) (human, UniProt Q14160 1002-1094)
T1 sequence (looked up): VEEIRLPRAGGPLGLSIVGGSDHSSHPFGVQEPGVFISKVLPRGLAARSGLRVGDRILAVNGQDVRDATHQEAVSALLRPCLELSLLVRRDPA


Assays:
[1] = test system: a wide range of different PDZ domains; conditions: cited from earlier work
[2] = biological target: T1, Human Scribble (SCRIB) PDZ3 domain …; test: ITC; conditions: both partners purified

Row | Molecule | affinity towards PDZ domains, in words [1] | Kd [2] | dH [2] | stoichiometry N [2]
1 | RSWFETWV [Superpeptide, used as a positive control] | affinity towards a wide range of different PDZ domains |  |  | 
2 | LRLESSII [TBEV NS5_CTN peptide (C-terminal PBM of NS5)] |  | 18.4 µM | -1.1 kcal/mol | 1

Reference: paper PMC9317960 (Biochemical Journal, 2022)
